B1: RNF26, wild type (coIP of Figures 5A and 5B) [not stated] / TOLLIP (endogenous) [human (endogenous in a human melanoma cell line and in HEK293T)] (parent)
chain 1: MEAVYLVVNGLGLVLDVLTLVLDLNFLLVSSLLASLAWLLAFVYNLPHTVLTSLLHLGRGVLLSLLALIEAVVRFTCGGLQALCTLLYSCCSGLESLKLLGHLASHGALRSREILHRGVLNVVSSGHALLRQACDICAIAMSLVAYVINSLVNICLIGTQNLFSLVLALWDAVTGPLWRMTDVVAAFLAHISSSAVAMAILLWTPCQLALELLASAARLLASFVLVNLTGLVLLACVLAVTVTVLHPDFTLRLATQALSQLHARPSYHRLREDVMRLSRLALGSEAWRRVWSRSLQLASWPNRGGAPGAPQGDPMRVFSVRTRRQDTLPEAGRRSEAEEEEARTIRVTPVRGRERLNEEEPPGGQDPWKLLKEQEERKKCVICQDQSKTVLLLPCRHLCLCQACTEILMRHPVYHRNCPLCRRGILQTLNVYL
chain 2: not shown
B2: RNF26, wild type (coIP of Figures 5A and 5B) [not stated] / EPS15 (endogenous) [human (endogenous in a human melanoma cell line and in HEK293T)] (parent)
chain 1: B1 chain 1
chain 2: MAAAAQLSLTQLSSGNPVYEKYYRQVDTGNTGRVLASDAAAFLKKSGLPDLILGKIWDLADTDGKGILNKQEFFVALRLVACAQNGLEVSLSSLNLAVPPPRFHDTSSPLLISGTSAAELPWAVKPEDKAKYDAIFDSLSPVNGFLSGDKVKPVLLNSKLPVDILGRVWELSDIDHDGMLDRDEFAVAMFLVYCALEKEPVPMSLPPALVPPSKRKTWVVSPAEKAKYDEIFLKTDKDMDGFVSGLEVREIFLKTGLPSTLLAHIWSLCDTKDCGKLSKDQFALAFHLISQKLIKGIDPPHVLTPEMIPPSDRASLQKNIIGSSPVADFSAIKELDTLNNEIVDLQREKNNVEQDLKEKEDTIKQRTSEVQDLQDEVQRENTNLQKLQAQKQQVQELLDELDEQKAQLEEQLKEVRKKCAEEAQLISSLKAELTSQESQISTYEEELAKAREELSRLQQETAELEESVESGKAQLEPLQQHLQDSQQEISSMQMKLMEMKDLENHNSQLNWCSSPHSILVNGATDYCSLSTSSSETANLNEHVEGQSNLESEPIHQESPARSSPELLPSGVTDENEVTTAVTEKVCSELDNNRHSKEEDPFNVDSSSLTGPVADTNLDFFQSDPFVGSDPFKDDPFGKIDPFGGDPFKGSDPFASDCFFRQSTDPFATSSTDPFSAANNSSITSVETLKHNDPFAPGGTVVAASDSATDPFASVFGNESFGGGFADFSTLSKVNNEDPFRSATSSSVSNVVITKNVFEETSVKSEDEPPALPPKIGTPTRPCPLPPGKRSINKLDSPDPFKLNDPFQPFPGNDSPKEKDPEIFCDPFTSATTTTNKEADPSNFANFSAYPSEEDMIEWAKRESEREEEQRLARLNQQEQEDLELAIALSKSEISEA
B3: RNF26, wild type (coIP of Figures 5A and 5B) [not stated] / USP15 (endogenous) [human (endogenous in a human melanoma cell line and in HEK293T)] (parent)
chain 1: B1 chain 1
chain 2: MAEGGAADLDTQRSDIATLLKTSLRKGDTWYLVDSRWFKQWKKYVGFDSWDKYQMGDQNVYPGPIDNSGLLKDGDAQSLKEHLIDELDYILLPTEGWNKLVSWYTLMEGQEPIARKVVEQGMFVKHCKVEVYLTELKLCENGNMNNVVTRRFSKADTIDTIEKEIRKIFSIPDEKETRLWNKYMSNTFEPLNKPDSTIQDAGLYQGQVLVIEQKNEDGTWPRGPSTPKSPGASNFSTLPKISPSSLSNNYNNMNNRNVKNSNYCLPSYTAYKNYDYSEPGRNNEQPGLCGLSNLGNTCFMNSAIQCLSNTPPLTEYFLNDKYQEELNFDNPLGMRGEIAKSYAELIKQMWSGKFSYVTPRAFKTQVGRFAPQFSGYQQQDCQELLAFLLDGLHEDLNRIRKKPYIQLKDADGRPDKVVAEEAWENHLKRNDSIIVDIFHGLFKSTLVCPECAKISVTFDPFCYLTLPLPMKKERTLEVYLVRMDPLTKPMQYKVVVPKIGNILDLCTALSALSGIPADKMIVTDIYNHRFHRIFAMDENLSSIMERDDIYVFEININRTEDTEHVIIPVCLREKFRHSSYTHHTGSSLFGQPFLMAVPRNNTEDKLYNLLLLRMCRYVKISTETEETEGSLHCCKDQNINGNGPNGIHEEGSPSEMETDEPDDESSQDQELPSENENSQSEDSVGGDNDSENGLCTEDTCKGQLTGHKKRLFTFQFNNLGNTDINYIKDDTRHIRFDDRQLRLDERSFLALDWDPDLKKRYFDENAAEDFEKHESVEYKPPKKPFVKLKDCIELFTTKEKLGAEDPWYCPNCKEHQQATKKLDLWSLPPVLVVHLKRFSYSRYMRDKLDTLVDFPINDLDMSEFLINPNAGPCRYNLIAVSNHYGGMGGGHYTAFAKNKDDGKWYYFDDSSVSTASEDQIVSKAAYVLFYQRQDTFSGTGFFPLDRETKGASAATGIPLESDEDSNDNDNDIENENCMHTN

Variants of: B1
Test: coIP
Parameters: reference not given here
Settings: with TOLLIP (endogenous) [human (endogenous in a human melanoma cell line and in HEK293T)]; HEK293T cells; n = 3; read off a plot

percent of parent	Variant
12 % Co-IP	chain 1 I382R

Variants of: B2
Test: coIP
Settings: with EPS15 (endogenous) [human (endogenous in a human melanoma cell line and in HEK293T)]; HEK293T cells; n = 3; read off a plot

percent of parent	Variant
22 % Co-IP	chain 1 I382R

Variants of: B3
Test: coIP
Settings: with USP15 (endogenous) [human (endogenous in a human melanoma cell line and in HEK293T)]; HEK293T cells; n = 3; read off a plot

percent of parent	Variant
27 % Co-IP	chain 1 I382R
